The supplement of paper PMC7125110
± gives the standard error. For some assays here: Fewer inactive variants are shown than the library holds.

B1: glmS ribozyme (parent)
chain: AUAAAAGCGCCAGAACUACAGAAAUGUAGUUGACGAGGAGGAGGUUUAUCGAAUUUUCGGCGGAUGCCUCCAAA

Columns and labels:
Details in all cases: with glucosamine-6-phosphate
[1] = variants of: B1; assay: kcat; higher = faster cleavage; RNA array
Outline: (§1)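 Barcoded ribozyme variants were transcribed in situ on sequenced MiSeq chips by E. coli RNA polymerase. At 37 °C, a hybridised Cy3 probe tracked them while glucosamine-6-phosphate (40 μM to 10 mM) in HEPES/KCl/Mg(OAc)2 buffer flowed in and tiles were imaged over ~14 h. Per-tile medians of signals normalised to baseline and to non-cleaving reference variants were fit to one- or two-exponential decays, giving kobs. kcat and KM came from weighted Michaelis–Menten fits across concentrations.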

[2] = variants of: B1; assay: self-cleavage kobs at 640 uM GlcN6P; higher = faster cleavage; RNA array
Outline: as §1

[3] = variants of: B1; assay: self-cleavage kobs at 2500 uM GlcN6P; higher = faster cleavage; RNA array
Outline: as §1

[4] = variants of: B1; assay: self-cleavage kobs at 10000 uM GlcN6P; higher = faster cleavage; RNA array
Outline: as §1

[5] = variants of: B1; assay: KM; higher = weaker cofactor use; RNA array
Outline: as §1

[6] = variants of: B1; assay: self-cleavage kobs at 160 uM GlcN6P; higher = faster cleavage; RNA array
Outline: as §1

[7] = variants of: B1; assay: self-cleavage kobs at 40 uM GlcN6P; higher = faster cleavage; RNA array
Outline: as §1

| Variant | kcat [1] [s⁻¹] | self-cleavage kobs at 640 uM GlcN6P [2] [s⁻¹] | self-cleavage kobs at 2500 uM GlcN6P [3] [s⁻¹] | self-cleavage kobs at 10000 uM GlcN6P [4] [s⁻¹] | KM [5] [mM] | self-cleavage kobs at 160 uM GlcN6P [6] [s⁻¹] | self-cleavage kobs at 40 uM GlcN6P [7] [s⁻¹] |
| --- | --- | --- | --- | --- | --- | --- | --- |
| A15C A64C | 1.33e-05 ± 4.6e-06 | – | – | – | – | – | – |
| A15U U65C | 5.03e-05 ± 3.5e-06 | 4.42e-05 ± 1.2e-05 | 4.8e-05 ± 8.3e-06 | 4.61e-05 ± 1.5e-05 | – | – | – |
| A15U U57G | 1.7e-05 ± 6.8e-06 | – | – | – | – | – | – |
| A15U U57C | 8.55e-05 ± 5e-06 | – | 2.97e-05 ± 8.8e-06 | 5.82e-05 ± 8.1e-06 | 4.69 ± 0.68 | < 1e-05 | – |
| A15U U57A | 4.21e-05 ± 3.2e-07 | – | – | 3.41e-05 ± 5.8e-06 | 2.34 ± 0.076 | – | – |
| A15G U49A | 1.35e-05 ± 1.2e-06 | – | – | – | 1.23 ± 0.55 | < 1e-05 | – |
| A15U A52C | < 1e-05 | < 1e-05 | – | – | 0.537 ± 0.11 | < 1e-05 | < 1e-05 |
| A15U A52G | 0.00041 ± 2.6e-05 | 8.94e-05 ± 1.6e-05 | 0.000222 ± 3.6e-05 | 0.000331 ± 4.6e-05 | 2.27 ± 0.28 | – | – |
| A15C C16A G62U | < 1e-05 | – | – | – | – | – | < 1e-05 |
| A15G C58A | 0.000835 ± 8.2e-05 | 8.63e-05 ± 1e-05 | 0.000303 ± 4e-05 | 0.000537 ± 5.2e-05 | 5.24 ± 0.79 | 2.68e-05 ± 1.2e-05 | – |
| A15G C58U | 0.000166 ± 4e-05 | – | 2.52e-05 ± 1.2e-05 | 7.17e-05 ± 9.6e-06 | – | – | – |
| A15U G66C | 0.000125 ± 1.5e-05 | – | 3.02e-05 ± 1.1e-05 | 6.96e-05 ± 1.2e-05 | 7.9 ± 1.9 | – | – |
| A14U U30C | 2.9e-05 ± 1.4e-05 | – | 4.54e-05 ± 1.8e-05 | – | – | < 1e-05 | – |
| A15C G41U | 0.000171 ± 7.6e-06 | 7.33e-05 ± 2.3e-05 | 0.000137 ± 3.4e-05 | 0.000154 ± 2.6e-05 | 0.879 ± 0.12 | – | – |
| A15C G41A | 0.000104 ± 4.7e-06 | 4.65e-05 ± 1.2e-05 | 8.56e-05 ± 1.8e-05 | 9.45e-05 ± 1.5e-05 | 0.744 ± 0.12 | – | – |
| A14U G40U | 0.00162 ± 0.0004 | 0.000205 ± 3e-05 | 0.000535 ± 7.1e-05 | 0.00123 ± 0.00015 | 4.23 ± 1.5 | 6.75e-05 ± 1.2e-05 | 3.43e-05 ± 1.2e-05 |
| A15U U49A C67A | 2.42e-05 ± 8.1e-06 | – | – | – | – | – | – |
| A15G A52U | 0.000384 ± 8.3e-05 | 3.21e-05 ± 7.2e-06 | 0.000147 ± 1.6e-05 | 0.00024 ± 2.3e-05 | 5.4 ± 2 | – | – |
| A15G A52G | 0.00182 ± 0.00044 | 0.000293 ± 3.7e-05 | 0.000596 ± 8.6e-05 | 0.0015 ± 0.00019 | 3.75 ± 1.4 | 8.59e-05 ± 2.3e-05 | – |
